In assay [1] the target is T1, CD86-mIgG (Ancell, Inc) (UniProt P42081 24-247, limits assumed).
T1 construct: Bought reagent
T1 sequence (looked up): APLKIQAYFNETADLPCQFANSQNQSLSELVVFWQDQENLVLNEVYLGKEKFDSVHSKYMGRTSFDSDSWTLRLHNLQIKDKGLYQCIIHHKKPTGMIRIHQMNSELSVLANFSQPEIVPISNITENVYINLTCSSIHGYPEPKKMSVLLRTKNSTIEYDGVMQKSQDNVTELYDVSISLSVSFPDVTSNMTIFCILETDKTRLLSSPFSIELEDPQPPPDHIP
In words: SPR (BIAcore T100), CD86-mIgG immobilized on CM5; second site. As for the experimental part: (§1) SPR measurements were performed on a BIAcore™ T100 SPR (Pharmacia Biotech AB, Uppsala) using HBS-EP+ (GE Healthcare) as a running buffer. […] CTLA4-containing constructs were injected for 150 seconds, at a flow rate of 10 μl/min, in a series of concentrations from 4 nM to 10 μM. Dissociation was monitored for 600 seconds, and the surface was either regenerated by injecting 50 mM sodium citrate, 500 mM sodium chloride, pH 5.0, for 60 seconds (wild type CTLA4) or 10 mM glycine, pH 1.7 (L104E A29Y CTLA4). […] Data were analyzed using BiaEvaluation for the T100 software (version 2.0.1, GE Healthcare).
(§2) SPR measurements were performed as listed above, with the following exceptions: HBS-P+ (GE Healthcare) was used as a running buffer; dissociation was monitored for 1200 seconds; and the surface was regenerated by injecting 10 mM glycine, pH 1.7, for 60 seconds.

Assay [2] concerns the target T1, CD86-mIgG (Ancell, Inc). In words: SPR (BIAcore T100), CD86-mIgG immobilized on CM5; first site. As for the experimental part: as §1, §2
(In general: SPR reads the build-up and loss of mass on a sensor chip optically.)

Assay [3] concerns the target T1, CD86-mIgG (Ancell, Inc). In words: SPR (BIAcore T100), CD86-mIgG immobilized on CM5; steady-state equilibrium fit. The protocol: as §1, §2

B1: 3D1 SMIP (Fc fusion)
chain: QVQLQQSGPELVRPGESVKISCKGSGYTFTDYAIQWVKQSHAKSLEWIGVINIYYDNTNYNQKFKGKATMTVDKSSSTAYMELARLTSEDSAIYYCARAAWYMDYWGQGTSVTVSSGGGGSGGGGSGGGGSGGGGSDIVLSQSPSSLAVSAGEKVTMSCKSSQSLLNSRTRENYLAWYQQKPGQSPKLLIYWASTRESGVPDRFTGSGSGTDFTLTISSVQAEDLAVYYCTQSYNLYTFGGGTKLEIKLEPKSSDKTHTCPPCPAPEAAGAPSVFLFPPKPKDTLMISRTPEVTCVVVDVSHEDPEVKFNWYVDGVEVHNAKTKPREEQYNSTYRVVSVLTVLHQDWLNGKAYACAVSNKALPAPIEKTISKAKGQPREPQVYTLPPSRDELTKNQVSLTCLVKGFYPSDIAVEWESNGQPENNYKTTPPVLDSDGSFFLYSKLTVDKSRWQQGNVFSCSVMHEALHNHYTQKSLSLSPG
notes: SMIP: murine 3D1 scFv at the N-terminus of a hinge-Fc single chain
Turning to B1, in the assay with CD86-mIgG (Ancell, Inc) [1], the “Second Site ka” value worked out at 0.0055 s⁻¹ and the “Second Site kd” value was found to be 0.0276 s⁻¹. Besides, in the assay with CD86-mIgG (Ancell, Inc) [2], the koff (in general, a measure of how fast the partners let go of each other) came out at 4.4e-05 s⁻¹ and the kon (usually a measure of how fast the partners come together) was determined as 323000 M⁻¹ s⁻¹. In addition, the Kd (as a rule, the free concentration of one partner at which half of the binding sites on the other are occupied at equilibrium, for simple one-to-one binding) with CD86-mIgG (Ancell, Inc) [3] came to 11.7 nM.

B2: FUN1 mAb (parent murine anti-CD86 monoclonal antibody) (antibody, V domains shown)
VH: EVQLQQSGPELEKPGASVKISCKASGYSFTDYNMNWVKQSNGKSLEWIGNIDPYYGGTSYNQKFKGKATLTVDKSSSTAYMQLNSLTSEDSAVYFCARWDYRYDDGRAYYVMDFWGQGTSVTVSS
VL: ELQMTQSPSSLAASAGEKVTMSCKSSQSVLYSSNQKNYLAWYQQKPGQSPKLLIYWASTRESGVPDRFTGSGSGTHFTLTVSSVQAEDLAVYYCHQYLYSWTFGGGTNLEIKR
notes: Murine monoclonal antibody; also called FUN1 antibody
Turning to B2, in the assay with CD86-mIgG (Ancell, Inc) [1], the “Second Site ka” value worked out at 0.00278 s⁻¹ and the “Second Site kd” value came out at 0.0154 s⁻¹. In addition, in the assay with CD86-mIgG (Ancell, Inc) [2], the koff was found to be 2.28e-05 s⁻¹ and the kon worked out at 129000 M⁻¹ s⁻¹. Also, the Kd in the assay with CD86-mIgG (Ancell, Inc) [3] is 36 nM.

B3: IL10::3D1 xceptor (Fc fusion)
chain: SPGQGTQSENSCTHFPGNLPNMLRDLRDAFSRVKTFFQMKDQLDNLLLKESLLEDFKGYLGCQALSEMIQFYLEEVMPQAENQDPDIKAHVNSLGENLKTLRLRLRRCHRFLPCENKSKAVEQVKNAFNKLQEKGIYKAMSEFDIFINYIEAYITMKIRNLEPKSSDKTHTCPPCPAPEAAGAPSVFLFPPKPKDTLMISRTPEVTCVVVDVSHEDPEVKFNWYVDGVEVHNAKTKPREEQYNSTYRVVSVLTVLHQDWLNGKAYACAVSNKALPAPIEKTISKAKGQPREPQVYTLPPSRDELTKNQVSLTCLVKGFYPSDIAVEWESNGQPENNYKTTPPVLDSDGSFFLYSKLTVDKSRWQQGNVFSCSVMHEALHNHYTQKSLSLSPGNSLFNQEVQIPLTESYSPNSQVQLQQSGPELVRPGESVKISCKGSGYTFTDYAIQWVKQSHAKSLEWIGVINIYYDNTNYNQKFKGKATMTVDKSSSTAYMELARLTSEDSAIYYCARAAWYMDYWGQGTSVTVSSGGGGSGGGGSGGGGSGGGGSDIVLSQSPSSLAVSAGEKVTMSCKSSQSLLNSRTRENYLAWYQQKPGQSPKLLIYWASTRESGVPDRFTGSGSGTDFTLTISSVQAEDLAVYYCTQSYNLYTFGGGTKLEIK
For B3, in the assay with CD86-mIgG (Ancell, Inc) [1], the “Second Site ka” value was 0.0124 s⁻¹ and the “Second Site kd” value was found to be 0.102 s⁻¹. In the assay with CD86-mIgG (Ancell, Inc) [2], this molecule showed a koff of 8.3e-05 s⁻¹ and a kon of 617000 M⁻¹ s⁻¹. Binding with CD86-mIgG (Ancell, Inc) [3] was put at a Kd of 35.7 nM.

B4: FUN1-21 humanized FUN1 SMIP (Fc fusion)
chain: QVQLVQSGAEVKKPGASVKVSCKASGYTFTDYNMNWVRQAPGQGLEWMGNIDPYYGGTSYNQKFKGRVTMTRDTSISTAYMELSRLRSDDTAVYYCARWDYRYDDGRAYYVMDFWGQGTTVTVSSGGGGSGGGGSGGGGSGGGGSDIVMTQSPDSLAVSLGERATINCKSSQSVLYSSNQKNYLAWYQQKPGQPPKLLIYWASTRESGVPDRFSGSGSGTDFTLTISSLQAEDVAVYYCHQYLYSWTFGQGTKLEIKRLEPKSSDKTHTCPPCPAPEAAGAPSVFLFPPKPKDTLMISRTPEVTCVVVDVSHEDPEVKFNWYVDGVEVHNAKTKPREEQYNSTYRVVSVLTVLHQDWLNGKAYACAVSNKALPAPIEKTISKAKGQPREPQVYTLPPSRDELTKNQVSLTCLVKGFYPSDIAVEWESNGQPENNYKTTPPVLDSDGSFFLYSKLTVDKSRWQQGNVFSCSVMHEALHNHYTQKSLSLSPG
notes: SMIP: scFv-hinge-Fc single chain
Turning to B4, in the assay with CD86-mIgG (Ancell, Inc) [1], the “Second Site ka” value stood at 0.00578 s⁻¹ and the “Second Site kd” value was 0.0127 s⁻¹. In the assay with CD86-mIgG (Ancell, Inc) [2], this molecule yielded a koff of 0.000139 s⁻¹ and a kon of 186000 M⁻¹ s⁻¹. The same molecule yielded a Kd with CD86-mIgG (Ancell, Inc) [3] of 26.9 nM.

B5: FUN1-21 PIMS (Fc fusion)
chain: EPKSSDKTHTCPPCPAPEAAGAPSVFLFPPKPKDTLMISRTPEVTCVVVDVSHEDPEVKFNWYVDGVEVHNAKTKPREEQYNSTYRVVSVLTVLHQDWLNGKAYACAVSNKALPAPIEKTISKAKGQPREPQVYTLPPSRDELTKNQVSLTCLVKGFYPSDIAVEWESNGQPENNYKTTPPVLDSDGSFFLYSKLTVDKSRWQQGNVFSCSVMHEALHNHYTQKSLSLSPGNSLFNQEVQIPLTESYSPNSQVQLVQSGAEVKKPGASVKVSCKASGYTFTDYNMNWVRQAPGQGLEWMGNIDPYYGGTSYNQKFKGRVTMTRDTSISTAYMELSRLRSDDTAVYYCARWDYRYDDGRAYYVMDFWGQGTTVTVSSGGGGSGGGGSGGGGSGGGGSDIVMTQSPDSLAVSLGERATINCKSSQSVLYSSNQKNYLAWYQQKPGQPPKLLIYWASTRESGVPDRFSGSGSGTDFTLTISSLQAEDVAVYYCHQYLYSWTFGQGTKLEIKR
notes: PIMS: humanized FUN1-21 scFv at the carboxy-terminus
On to B5, for which, in the assay with CD86-mIgG (Ancell, Inc) [1], the “Second Site ka” value is 0.00113 s⁻¹ and the “Second Site kd” value was found to be 0.00837 s⁻¹. In the assay with CD86-mIgG (Ancell, Inc) [2], this molecule showed a koff of 9.1e-05 s⁻¹ and a kon of 50000 M⁻¹ s⁻¹. In addition, the affinity with CD86-mIgG (Ancell, Inc) [3], expressed as Kd, was 70.9 nM.

B6: 3D1::IL10 xceptor (Fc fusion)
chain: QVQLQQSGPELVRPGESVKISCKGSGYTFTDYAIQWVKQSHAKSLEWIGVINIYYDNTNYNQKFKGKATMTVDKSSSTAYMELARLTSEDSAIYYCARAAWYMDYWGQGTSVTVSSGGGGSGGGGSGGGGSGGGGSDIVLSQSPSSLAVSAGEKVTMSCKSSQSLLNSRTRENYLAWYQQKPGQSPKLLIYWASTRESGVPDRFTGSGSGTDFTLTISSVQAEDLAVYYCTQSYNLYTFGGGTKLEIKLEPKSSDKTHTCPPCPAPEAAGAPSVFLFPPKPKDTLMISRTPEVTCVVVDVSHEDPEVKFNWYVDGVEVHNAKTKPREEQYNSTYRVVSVLTVLHQDWLNGKAYACAVSNKALPAPIEKTISKAKGQPREPQVYTLPPSRDELTKNQVSLTCLVKGFYPSDIAVEWESNGQPENNYKTTPPVLDSDGSFFLYSKLTVDKSRWQQGNVFSCSVMHEALHNHYTQKSLSLSPGNSLFNQEVQIPLTESYSPNSSPGQGTQSENSCTHFPGNLPNMLRDLRDAFSRVKTFFQMKDQLDNLLLKESLLEDFKGYLGCQALSEMIQFYLEEVMPQAENQDPDIKAHVNSLGENLKTLRLRLRRCHRFLPCENKSKAVEQVKNAFNKLQEKGIYKAMSEFDIFINYIEAYMTMKIRN
notes: anti-CD86 3D1 scFv - Fc - IL10
In the case of B6, in the assay with CD86-mIgG (Ancell, Inc) [1], the “Second Site ka” value worked out at 0.0094 s⁻¹ and the “Second Site kd” value amounted to 0.0462 s⁻¹. Also, in the assay with CD86-mIgG (Ancell, Inc) [2], the koff was found to be 7.06e-05 s⁻¹ and the kon was 974000 M⁻¹ s⁻¹. In addition, in the assay with CD86-mIgG (Ancell, Inc) [3], the Kd amounted to 26.5 nM.

B7: SEQ ID NO: 328 (Fc fusion)
chain: EPKSSDKTHTCPPCPAPEAAGAPSVFLFPPKPKDTLMISRTPEVTCVVVDVSHEDPEVKFNWYVDGVEVHNAKTKPREEQYNSTYRVVSVLTVLHQDWLNGKAYACAVSNKALPAPIEKTISKAKGQPREPQVYTLPPSRDELTKNQVSLTCLVKGFYPSDIAVEWESNGQPENNYKTTPPVLDSDGSFFLYSKLTVDKSRWQQGNVFSCSVMHEALHNHYTQKSLSLSPGNSLFNQEVQIPLTESYSPNSQVQLQQSGPELVRPGESVKISCKGSGYTFTDYAIQWVKQSHAKSLEWIGVINIYYDNTNYNQKFKGKATMTVDKSSSTAYMELARLTSEDSAIYYCARAAWYMDYWGQGTSVTVSSGGGGSGGGGSGGGGSGGGGSDIVLSQSPSSLAVSAGEKVTMSCKSSQSLLNSRTRENYLAWYQQKPGQSPKLLIYWASTRESGVPDRFTGSGSGTDFTLTISSVQAEDLAVYYCTQSYNLYTFGGGTKLEIK
notes: also called 3D1 PIMS (probably)
With B7, in the assay with CD86-mIgG (Ancell, Inc) [1], the “Second Site ka” value worked out at 0.00077 s⁻¹ and the “Second Site kd” value stood at 0.00377 s⁻¹. In the assay with CD86-mIgG (Ancell, Inc) [2], the koff was determined as 2.37e-05 s⁻¹ and the kon was found to be 112000 M⁻¹ s⁻¹. Besides, in the assay with CD86-mIgG (Ancell, Inc) [3], the Kd came out at 28 nM.

B8: FUN1-11 humanized FUN1 SMIP (Fc fusion)
chain: EVQLVQSGAEVKKPGATVKISCKVSGYTFTDYNMNWVQQAPGKGLEWMGNIDPYYGGTSYNQKFKGRVTITADTSTDTAYMELSSLRSEDTAVYYCATWDYRYDDGRAYYVMDFWGQGTTVTVSSGGGGSGGGGSGGGGSGGGGSDIVMTQSPDSLAVSLGERATINCKSSQSVLYSSNQKNYLAWYQQKPGQPPKLLIYWASTRESGVPDRFSGSGSGTDFTLTISSLQAEDVAVYYCHQYLYSWTFGQGTKLEIKRLEPKSSDKTHTCPPCPAPEAAGAPSVFLFPPKPKDTLMISRTPEVTCVVVDVSHEDPEVKFNWYVDGVEVHNAKTKPREEQYNSTYRVVSVLTVLHQDWLNGKAYACAVSNKALPAPIEKTISKAKGQPREPQVYTLPPSRDELTKNQVSLTCLVKGFYPSDIAVEWESNGQPENNYKTTPPVLDSDGSFFLYSKLTVDKSRWQQGNVFSCSVMHEALHNHYTQKSLSLSPG
notes: as for B4
With B8, in the assay with CD86-mIgG (Ancell, Inc) [1], the “Second Site ka” value came out at 7.5e-05 s⁻¹ and the “Second Site kd” value was found to be 1.25e-06 s⁻¹. Also, in the assay with CD86-mIgG (Ancell, Inc) [2], the koff was 0.00035 s⁻¹ and the kon stood at 13900 M⁻¹ s⁻¹. The molecule also returned a Kd with CD86-mIgG (Ancell, Inc) [3] of 119 nM.

Source of the values: US20120100139A1 (APTEVO RESEARCH AND DEVELOPMENT, published 2012).
